For assay [1], the target named is T1, recombinant human VEGF165 (human, UniProt P15692 27-191).
T1 construct: mature; Isoform VEGF165 of the entry; also called hVEGF165; hVEGF
The experiment in a line: Biacore SPR, VEGF immobilized, pH 5. As for the experimental part:
In this example, the Biacore-binding ability of scFvs was tested and the binding affinity was measured using the exemplary surface plasmon resonance method with BIAcore™-T100. The VEGF proteins, tested for binding by these scFv candidates, in this example and later examples include purified Escherichia coli-expressed recombinant human VEGF₁₆₅ (PeproTech EC Ltd.), recombinant human VEGF₁₂₁ (PeproTech EC Ltd.), recombinant human VEGF₁₁₀ (ESBATech AG), recombinant murine VEGF₁₆₄ (PeproTech EC Ltd.), recombinant rat VEGF₁₆₄ (Biovision), recombinant rabbit VEGF₁₁₀ (ESBATech AG), and recombinant human PLGF (PeproTech EC Ltd.). For the surface plasmon resonance experiment, carboxymethylated dextran biosensor chips (CM4, GE Healthcare) were activated with N-ethyl-N′-(3-dimethylaminopropyl) carbodiimide hydrochloride and N-hydroxysuccinimide according to the supplier's instructions. Each of the 6 different VEGF forms, as exemplified above, was coupled to 1 of the 4 different flow cells on a CM4 sensor chip using a standard amine-coupling procedure. […] The 4th flow cell of each chip was treated similarly except no proteins were immobilized prior to blocking, and the flow cell was used as in-line reference. […] Dissociation of the anti-VEGF scFv from the VEGF on the CM4 chip was allowed to proceed for 10 min at 25° C. Sensorgrams were generated for each anti-VEGF scFv sample after in-line reference cell correction followed by buffer sample subtraction. The apparent dissociation rate constant (kd), the apparent association rate constant (kₐ) and the apparent dissociation equilibrium constant (KD) were calculated using one-to-one Langmuir binding model with BIAcore T100 evaluation Software version 1.1. […]
(SPR reads the build-up and loss of mass on a sensor chip optically.)

Assay [2] addresses T1, recombinant human VEGF165. The experiment in a line: Biacore SPR, VEGF immobilized, pH 5. On the procedure: (§1) In this example, the Biacore-binding ability of scFvs was tested and the binding affinity was measured using the exemplary surface plasmon resonance method with BIAcore™-T100. The VEGF proteins, tested for binding by these scFv candidates, in this example and later examples include purified Escherichia coli-expressed recombinant human VEGF₁₆₅ (PeproTech EC Ltd.), recombinant human VEGF₁₂₁ (PeproTech EC Ltd.), recombinant human VEGF₁₁₀ (ESBATech AG), recombinant murine VEGF₁₆₄ (PeproTech EC Ltd.), recombinant rat VEGF₁₆₄ (Biovision), recombinant rabbit VEGF₁₁₀ (ESBATech AG), and recombinant human PLGF (PeproTech EC Ltd.). For the surface plasmon resonance experiment, carboxymethylated dextran biosensor chips (CM4, GE Healthcare) were activated with N-ethyl-N′-(3-dimethylaminopropyl) carbodiimide hydrochloride and N-hydroxysuccinimide according to the supplier's instructions. Each of the 6 different VEGF forms, as exemplified above, was coupled to 1 of the 4 different flow cells on a CM4 sensor chip using a standard amine-coupling procedure. […] The 4th flow cell of each chip was treated similarly except no proteins were immobilized prior to blocking, and the flow cell was used as in-line reference. […] Dissociation of the anti-VEGF scFv from the VEGF on the CM4 chip was allowed to proceed for 10 min at 25° C. Sensorgrams were generated for each anti-VEGF scFv sample after in-line reference cell correction followed by buffer sample subtraction. The apparent dissociation rate constant (kd), the apparent association rate constant (kₐ) and the apparent dissociation equilibrium constant (KD) were calculated using one-to-one Langmuir binding model with BIAcore T100 evaluation Software version 1.1.
This is another data set of the same source.

Assay [3] addresses T1, recombinant human VEGF165. As to the kind of experiment: Biacore SPR, VEGF immobilized, pH 7.4. As for the experimental part:
as §1

Consider 14 molecules from patent US20150274820A1 (ESBATECH AN ALCON BIOMEDICAL RESEARCH UNIT, published 2015).

Changes are numbered by the printed parent chain. In names and notes the source's numbering stands. Bounds are passed on as bounds.

T1 sequence (P15692 other isoform, or with tags, fused parts or gaps): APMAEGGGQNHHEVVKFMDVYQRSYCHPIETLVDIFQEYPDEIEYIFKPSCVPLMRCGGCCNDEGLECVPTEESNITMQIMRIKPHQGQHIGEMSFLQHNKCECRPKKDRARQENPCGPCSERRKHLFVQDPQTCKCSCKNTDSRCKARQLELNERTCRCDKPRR

B1: 578-max FW1.4_DHP (scFv)
scFv: EIVMTQSPSTLSASVGDRVIITCQASEIIHSWLAWYQQKPGKAPKLLIYLASTLASGVPSRFSGSGSGTQFTLTISSLQPDDFATYYCQNVYLASTNGANFGQGTKLTVLGGGGGSGGGGSGGGGSGGGGSEVQLVESGGGSVQPGGSLRLSCTASGFSLTDYYYMTWVRQAPGKGLEWVGFIDPDDDPYYATWAKGRFTISRDTSKNTVYLQMNSLRAEDTATYYCAGGDHNSGWGLDIWGQGTTVTVSS
notes: Tied by name only; also called Protein Nr; 960
What is called Kd is the constant that tells how readily two partners part at equilibrium. A word on the koff: it is a measure of how fast the partners let go of each other. For orientation: kon means the second-order rate constant of association. For the molecule B1, in assay [1], the Kd was 0.266 nM, the dissociation rate constant (koff) was 0.000248 s⁻¹ and the kon was 930000 M⁻¹ s⁻¹.

B2: 578-max-min (scFv)
scFv: B1 scFv with S142L, T154A, G181S, T205N, V210L, T224V, G229K, T246L
notes: also called Protein Nr; 902
For B2, in assay [1], the Kd came out at 6.55 nM, the koff turned out to be 0.00883 s⁻¹ and the kon was determined as 1.35e+06 M⁻¹ s⁻¹.

B3: 578min_max T84N (scFv)
scFv: B1 scFv with T69A, Q70E, S142L, T205N, T224V, T246L
notes: the VH entry already carries T84N; tied by name; also called Protein Nr
On to B3, for which, in assay [1], the Kd turned out to be 0.971 nM, the koff came out at 0.0007 s⁻¹ and the kon stood at 721000 M⁻¹ s⁻¹.

B4: 578min_max V89L (scFv)
scFv: B1 scFv with T69A, Q70E, S142L, V210L, T224V, T246L
notes: the VH entry already carries V89L; tied by name; also called Protein Nr; 980
For the molecule B4, in assay [1], the Kd is 2.13 nM, the off-rate constant (koff) came to 0.00187 s⁻¹ and the kon is 875000 M⁻¹ s⁻¹.

B5: 578min_max T84N_V89A (scFv)
scFv: B1 scFv with T69A, Q70E, S142L, T205N, V210A, T224V, T246L
notes: the VH entry already carries the changes; tied by name; also called Protein Nr; 1009
B5: in assay [1], the Kd was determined as 0.615 nM, the koff came to 0.000493 s⁻¹ and the kon turned out to be 801000 M⁻¹ s⁻¹.

B6: 578min_max V89A (scFv)
scFv: B1 scFv with T69A, Q70E, S142L, V210A, T224V, T246L
notes: the VH entry already carries V89A; tied by name; also called Protein Nr; 978
B6: in assay [1], the Kd was determined as 1.2 nM, the koff was 0.000612 s⁻¹ and the kon worked out at 509000 M⁻¹ s⁻¹.

B7: 375-min (scFv)
scFv: EIVMTQSPSTLSASVGDRVIITCQASENINIWLSWYQQKPGKAPKLLIYQASKLASGVPSRFSGSGSGAEFTLTISSLQPDDFATYYCQNNYSYNRYGAPFGQGTKLTVLGGGGGSGGGGSGGGGSGGGGSEVQLVESGGGLVQPGGSLRLSCAASGFSFTTTDYMCWVRQAPGKGLEWVSCILAGDGSTYYANWAKGRFTISRDNSKNTLYLQMNSLRAEDTAVYYCAKSDPASSWSFALWGQGTLVTVSS
notes: VL and VH tied by name; also called Protein Nr; 857
As to B7, in assay [2], the koff came out at 0.00501 s⁻¹ and the kon stood at 927000 M⁻¹ s⁻¹. In addition, the on-rate constant (kon) in assay [3] is above 1e+08 M⁻¹ s⁻¹.

B8: 375-max (scFv)
scFv: B7 scFv with A69T, E70Q, A154K, S181G, I202G, R204K, N206T, L211V, K230R
notes: VL and VH tied by name; also called Protein Nr; 873
In the case of B8, the koff in assay [2] came out at 0.00655 s⁻¹; in assay [3], 0.242 s⁻¹. Also, the kon in assay [2] was determined as 2.44e+06 M⁻¹ s⁻¹; in assay [3], 5.09e+07 M⁻¹ s⁻¹.

B9: 610-min (scFv)
scFv: EIVMTQSPSTLSASVGDRVIITCQASQSISSWLSWYQQKPGKAPKLLIYQASTLASGVPSRFSGSGSGAEFTLTISSLQPDDFATYYCQNNYGFRSYGGAFGQGTKLTVLGGGGGSGGGGSGGGGSGGGGSEVQLVESGGGLVQPGGSLRLSCAASGIDFSGAYYMGWVRQAPGKGLEWVSYIDYDGDRYYASWAKGRFTISRDNSKNTLYLQMNSLRAEDTAVYYCAKSDYSSGWGTDIWGQGTLVTVSS
notes: VL and VH tied by name; also called Protein Nr
For the molecule B9, in assay [2], the off-rate constant (koff) is 0.00265 s⁻¹ and the on-rate constant (kon) stood at 251000 M⁻¹ s⁻¹.

B10: 610-max (scFv)
scFv: B9 scFv with A69T, A154T, S181G, R203K, N205T, L210V, K229R
notes: as for B9
For the molecule B10, in assay [2], the koff was 0.000601 s⁻¹ and the kon amounted to 509000 M⁻¹ s⁻¹. In addition, in assay [3], the kon was above 1e+08 M⁻¹ s⁻¹.

B11: 435-min (scFv)
scFv: EIVMTQSPSTLSASVGDRVIITCQASQSIGSSLAWYQQKPGKAPKLLIYTAANLASGVPSRFSGSGSGAEFTLTISSLQPDDFATYYCQNFATSDTVTFGQGTKLTVLGGGGGSGGGGSGGGGSGGGGSEVQLVESGGGLVQPGGSLRLSCAASGFSLNTNYWMCWVRQAPGKGLEWVSCMYTGSYNRAYYASWAKGRFTISRDNSKNTLYLQMNSLRAEDTAVYYCAKGSNWYSDLWGQGTLVTVSS
notes: VL and VH tied by name; also called Protein Nr; 944
As for B11, in assay [3], the koff was 0.0143 s⁻¹ and the kon was 495000 M⁻¹ s⁻¹.

B12: 511max_min (scFv)
scFv: EIVMTQSPSTLSASVGDRVIITCQASQSINIWLSWYQQKPGKAPKLLIYRASTLASGVPSRFSGSGSGTEFTLTISSLQPDDFATYYCQANYAYSAGYGAAFGQGTKLTVLGGGGGSGGGGSGGGGSGGGGSEVQLVESGGGLVQPGGSLRLSCAASGFSLNTYYMNWVRQAPGKGLEWVSIIAPDDTTYYASWAKSRFTISRDNSKNTLYLQMNSLRAEDTAVYYCAKSGDTTAWGADIWGQGTLVTVSS
notes: also called Protein Nr; 905
Consider B12, for which, in assay [1], the dissociation constant Kd worked out at 1.48 nM, the koff was 0.000754 s⁻¹ and the kon was 511000 M⁻¹ s⁻¹.

B13: 511min_max (scFv)
scFv: B12 scFv with L33C, T69A, A155T, A156V, S181G, F199S, N205T, L210V, K229R
notes: also called Protein Nr; 904
For B13, in assay [1], the Kd was determined as 0.278 nM, the koff was 0.000102 s⁻¹ and the kon turned out to be 366000 M⁻¹ s⁻¹.

B14: 534-min C-His (scFv)
scFv: EIVMTQSPSTLSASVGDRVIITCQASQSINIWLSWYQQKPGKAPKLLIYKESTLASGVPSRFSGSGSGAEFTLTISSLQPDDFATYYCQNNYDSGNNGFPFGQGTKLTVLGGGGGSGGGGSGGGGSGGGGSEVQLVESGGGLVQPGGSLRLSCAASGFSLSYYYMSWVRQAPGKGLEWVSIIGPGDYTDYASWAKGRFTISRDNSKNTLYLQMNSLRAEDTAVYYCAKGDDNSGWGEDIWGQGTLVTVSS
notes: VL and VH tied by name; His tag only named (C-His); also called Protein Nr; 807; not shown: C-terminal His tag
For the molecule B14, in assay [2], the koff turned out to be 0.00921 s⁻¹ and the kon was determined as 271000 M⁻¹ s⁻¹.
